In PMC8651678 (Nature Communications, 2021):

Legend:
[1] = target: T1, human eIF2B(αβδγε)2 decamer, eIF2Bβ Avi-tagged and biotinylated (human, UniProt Q14232;P49770;Q9UI10;Q9NR50;Q13144, biotin on the Avi tag); test: SPR; conditions: both partners purified
T1 construct: also called decameric eIF2B; copies: 2 + 2 + 2 + 2 + 2

[2] = target: T2, human eIF2B(αβδγε)2 decamer (no capture tag) (human, UniProt Q14232;P49770;Q9UI10;Q9NR50;Q13144); test: fluorescence polarisation; conditions: both partners purified
T2 construct: also called decameric eIF2B; eIF2B(αβγδε)2; copies: 2 + 2 + 2 + 2 + 2

B1: Sandfly Fever Sicilian virus (SFSV) NSs protein with a C-terminal 6xHIS tag (natural protein)
chain: MINNNMMNSQYMFDYPAINIDVRCHRLLSSVSYVAYNKFHTHDVSTYEHCEIPLEKLRLGFGRRNSLADFYSLGELPASWGPACYFSSVKPMMYTFQGMASDLSRFDLTSFSRKGLPNVLKALSWPLGIPDCEIFSICSDRFVRGLQTRDQLMSYILRMGDSHSLDECIVQAHKKILQEARRLGLSDEHYNGYDLFREIGSLVCLRLINAEPFDTASSGEALDVRTVIRSYRASDPSTGLTEYGNSLWTPIHSHVDENDESSSDSDF
notes: not shown: 6xHIS, C-terminal, kept
Kd [1]: 30 nM
EC50 [2]: 72 nM
